{
  "source": "IntAct's records for PubMed 11742986",
  "parents": {"B1": {"name": "26S proteasome regulatory subunit 8 homolog (Saccharomyces cerevisiae), Q01939 (parent)", "chain": "MTAAVTSSNIVLETHESGIKPYFEQKIQETELKIRSKTENVRRLEAQRNALNDKVRFIKDELRLLQEPGSYVGEVIKIVSDKKVLVKVQPEGKYIVDVAKDINVKDLKASQRVCLRSDSYMLHKVLENKADPLVSLMMVEKVPDSTYDMVGGLTKQIKEIKEVIELPVKHPELFESLGIAQPKGVILYGPPGTGKTLLARAVAHHTDCKFIRVSGAELVQKYIGEGSRMVRELFVMAREHAPSIIFMDEIDSIGSTRVEGSGGGDSEVQRTMLELLNQLDGFETSKNIKIIMATNRLDILDPALLRPGRIDRKIEFPPPSVAARAEILRIHSRKMNLTRGINLRKVAEKMNGCSGADVKGVCTEAGMYALRERRIHVTQEDFELAVGKVMNKNQETAISVAKLFK", "partner": "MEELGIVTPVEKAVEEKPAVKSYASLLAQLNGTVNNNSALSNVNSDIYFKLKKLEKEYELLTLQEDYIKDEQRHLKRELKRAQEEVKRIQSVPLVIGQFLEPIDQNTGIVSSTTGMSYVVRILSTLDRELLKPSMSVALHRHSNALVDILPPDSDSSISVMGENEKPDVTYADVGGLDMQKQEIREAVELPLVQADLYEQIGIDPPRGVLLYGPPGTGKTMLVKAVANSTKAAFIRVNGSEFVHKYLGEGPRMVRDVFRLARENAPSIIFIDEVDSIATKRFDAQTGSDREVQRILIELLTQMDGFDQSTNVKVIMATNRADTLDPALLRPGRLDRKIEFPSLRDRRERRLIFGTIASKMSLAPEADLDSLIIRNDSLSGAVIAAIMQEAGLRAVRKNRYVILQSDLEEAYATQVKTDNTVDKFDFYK"}},
  "data": [
    {"variants_of": "B1", "details": "with prs6b_yeast RPT3, P33298", "values": [
      {"variant": "K195S", "effect of a mutation on the interaction": "decreasing interaction"},
      {"variant": "K195R", "effect of a mutation on the interaction": "decreasing interaction"}
    ]}
  ]
}
